Measurements: PMC7851051
Where two headings read alike, the source gives them in different places.

How the values were obtained:
[1] = biological target: LLO118_(high) single-chain TCR (scTCR), displayed on yeast (mouse); experiment: flow cytometry on cells; scTCR displayed on yeast stained with LLO_(190-201)/I-A^b tetramer; histograms (Figure 1C)
[2] = biological target: LLO56int single-chain TCR (scTCR), displayed on yeast (mouse); experiment: as above
[3] = biological target: LLO118low single-chain TCR (scTCR), displayed on yeast (mouse); experiment: flow cytometry on cells
[4] = biological target: LLO118int single-chain TCR (scTCR), displayed on yeast (mouse); experiment: flow cytometry on cells
[5] = biological target: LLO56low single-chain TCR (scTCR), displayed on yeast (mouse); experiment: flow cytometry on cells
[6] = biological target: LLO118_(high) single-chain TCR (scTCR), displayed on yeast (mouse); experiment: flow cytometry on cells; tetramer decay on yeast-displayed scTCR: 6.5 µg/ml tetramer, 1.5 h, room temperature, washed, then anti-mouse MHC class II (M5/114.15.2) added and tetramer followed for 2-60 min; first round (Figure 2C); multivalent half-life
[7] = biological target: LLO56int single-chain TCR (scTCR), displayed on yeast (mouse); experiment: as above
[8] = biological target: LLO118int single-chain TCR (scTCR), displayed on yeast (mouse); experiment: flow cytometry on cells; remark: listed apart in the source
[9] = biological target: LLO118_(high) single-chain TCR (scTCR), displayed on yeast (mouse); experiment: flow cytometry on cells; tetramer titration on yeast-displayed scTCR: 1x10^6 induced cells, 0.152 nM to 12.16 nM tetramer, 1.5 h, room temperature; MFI normalised; KD = 50% maximum binding concentration, one site-specific fit; multivalent avidity; percent of cells bound (Figure 2B)
[10] = biological target: LLO56int single-chain TCR (scTCR), displayed on yeast (mouse); experiment: as above
[11] = biological target: LLO56int single-chain TCR (scTCR), displayed on yeast (mouse); experiment: flow cytometry on cells; tetramer decay on yeast-displayed scTCR as above, second round with lower levels of MHC inhibiting-antibody (Figure 2D); multivalent half-life

Q: For “LLO_(190-201)/I-A^b tetramer (peptide-MHC)”, which log better tetramer binding than LLO118int [1] is on record?
A: 1 log

Q: And the log better tetramer binding than LLO118low [1]?
A: 2.5 log

Q: What about the log better tetramer binding than LLO56low [2] of the same substance?
A: 1.5 log

Q: What about the other [3] of the same substance?
A: 1.1%

Q: And the Kd [4]?
A: 44.8 nM

Q: What about the other [4] of the same substance?
A: 24.5%

Q: And the other [5]?
A: 0.75%

Q: And the t1/2 [6]?
A: 165 m

Q: And the t1/2 [7]?
A: 1 m

Q: What about the other [8] of the same substance?
A: 6.7 min

Q: What about the Kd [9] of the same substance?
A: 7.33 nM

Q: What about the percent of cells bound by tetramer [9] of the same substance?
A: 43.3%

Q: And the Kd [10]?
A: 39.2 nM

Q: And the percent of cells bound by tetramer [10]?
A: 12.6%

Q: And the t1/2 [11]?
A: 3.5 min
